Where a chain is given by its changes, count along the chain named.
T1: recombinant human Ang2-FLD (human, UniProt O15123 275-496, limits assumed)
T1 construct: domain: FLD; not used
T1 sequence (looked up): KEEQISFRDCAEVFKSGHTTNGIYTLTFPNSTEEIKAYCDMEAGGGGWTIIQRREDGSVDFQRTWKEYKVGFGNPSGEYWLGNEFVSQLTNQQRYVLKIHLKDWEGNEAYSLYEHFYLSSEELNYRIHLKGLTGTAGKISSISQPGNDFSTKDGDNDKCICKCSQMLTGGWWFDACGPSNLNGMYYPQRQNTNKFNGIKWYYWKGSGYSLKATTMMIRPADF

T2: FLAG-tagged mouse Ang2 (mouse, UniProt O35608 19-496)
T2 construct: N-terminally FLAG-tagged, conditioned medium of HEK293T cells; also called mAng2; FLAG-mAng2
T2 sequence: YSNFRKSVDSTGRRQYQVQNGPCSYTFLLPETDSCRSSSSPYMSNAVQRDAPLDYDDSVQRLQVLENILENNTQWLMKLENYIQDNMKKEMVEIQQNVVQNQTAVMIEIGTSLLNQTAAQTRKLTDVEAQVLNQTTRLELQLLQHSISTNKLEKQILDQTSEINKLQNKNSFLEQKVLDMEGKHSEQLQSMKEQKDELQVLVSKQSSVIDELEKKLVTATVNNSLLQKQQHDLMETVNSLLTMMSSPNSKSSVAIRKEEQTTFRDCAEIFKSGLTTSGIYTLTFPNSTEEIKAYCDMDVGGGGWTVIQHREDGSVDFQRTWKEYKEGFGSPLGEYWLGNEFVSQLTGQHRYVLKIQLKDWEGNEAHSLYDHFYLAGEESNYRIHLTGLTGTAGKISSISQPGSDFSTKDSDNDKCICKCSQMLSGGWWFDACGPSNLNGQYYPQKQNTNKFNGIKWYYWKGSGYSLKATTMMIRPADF

T3: FLAG-tagged cynomolgus Ang2 (cynomolgus, UniProt O15123 19-496 (human entry), limits assumed)
T3 construct: N-terminally FLAG-tagged, conditioned medium of HEK293T cells; also called cAng2; FLAG-cAng2
T3 chain: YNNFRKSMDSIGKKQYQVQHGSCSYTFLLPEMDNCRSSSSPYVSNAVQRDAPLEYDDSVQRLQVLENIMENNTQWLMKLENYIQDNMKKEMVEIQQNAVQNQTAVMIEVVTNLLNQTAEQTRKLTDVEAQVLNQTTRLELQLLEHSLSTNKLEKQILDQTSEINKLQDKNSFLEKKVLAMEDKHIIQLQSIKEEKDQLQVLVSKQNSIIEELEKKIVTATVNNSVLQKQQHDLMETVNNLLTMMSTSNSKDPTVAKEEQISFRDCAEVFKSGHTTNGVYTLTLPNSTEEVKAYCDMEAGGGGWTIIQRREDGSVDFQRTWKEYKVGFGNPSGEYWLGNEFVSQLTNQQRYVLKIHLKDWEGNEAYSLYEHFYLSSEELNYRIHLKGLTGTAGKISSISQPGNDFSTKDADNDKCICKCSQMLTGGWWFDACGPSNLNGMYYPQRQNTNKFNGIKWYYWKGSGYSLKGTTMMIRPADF

T4: N-terminally FLAG-tagged mouse Ang2 (HEK293T conditioned medium) (mouse, UniProt O35608 19-496)
T4 construct: may be a nucleotide entry; also called mAng2; FLAG-mAng2
T4 sequence: T2 sequence

B1: VHH 64G02 (VHH)
VHH: EVQLVESGGGLVQAGGSLRLSCAISGFTLVDYAIGWFRQAPGKEREGVSSIRDNDGSTYYADSVKGRFIISSDNDKNTVYLQMNSLKPEDTAVYYCAAVPAGRLRFGEQWYPIYEYDAWGQGTLVTVSS
notes: periplasmic extract; not shown: C-terminal c-myc tag and His6 tag
B2: VHH 64G11 (VHH)
VHH: B1 VHH with I24A, F27I, V30D, E46V, I69T
notes: as for B1
B3: VHH 65F01 (VHH)
VHH: B1 VHH with I24A, F27L, V30D, T58R, I69T
notes: as for B1
B4: VHH 65F03 (VHH)
VHH: B1 VHH with L4M, I24A, F27L, V30D, I69T, S85G
notes: as for B1
B5: VHH 64G03 (VHH)
VHH: B1 VHH with I24A, V30D, F68S, I69T, N84D, F106Y
notes: as for B1
B6: VHH 64G12 (VHH)
VHH: B1 VHH with I24V, V30D, D53E, K65Q, I69T, Q82R
notes: as for B1
B7: VHH 00043 (VHH, not shown: small tags and cut ends)
VHH: B1 VHH with A14P, I24A, V30D, I69T, S72R, D75A, K87R, I113L
B8: VHH 00025 (VHH, not shown: small tags and cut ends)
VHH: B1 VHH with I24A, V30D, S50T, N54S, I69T, I113L
B9: VHH 00041 (VHH, not shown: small tags and cut ends)
VHH: B1 VHH with A14P, I24A, V30D, I69T, D75A, K87R, I113L
B10: VHH 00026 (VHH, not shown: small tags and cut ends)
VHH: B1 VHH with I24A, V30D, S50A, N54S, I69T, I113L
B11: VHH 1D01 (VHH, not shown: small tags and cut ends)
VHH: EVQLVESGGGLVQAGGSLRLSCAASGFTFDDYALGWFRQAAGKEREGVSCIRCSDGSTYYADSVKGRFTISSDNAKNTVYLQMNSLKPEDTAVYYCAASIVPRSKLEPYEYDAWGQGTQVTVSS
notes: Parental llama VHH; also called 001D01
B12: VHH 00925 (VHH, not shown: small tags and cut ends)
VHH: B11 VHH with E1D, A14P, A41P, D55G, A75S, K87R, Q119L
B13: VHH 00051 (VHH, not shown: small tags and cut ends)
VHH: B11 VHH with A14P, D55G, A75S, K87R, Q119L
B14: VHH 00039 (VHH, not shown: small tags and cut ends)
VHH: B11 VHH with A14P, S72R, A75S, K87R, Q119L
B15: VHH 00040 (VHH, not shown: small tags and cut ends)
VHH: B11 VHH with A14P, A41P, S72R, A75S, K87R, Q119L
B16: VHH 00049 (VHH, not shown: small tags and cut ends)
VHH: B11 VHH with A14P, A75S, K87R, Q119L
B17: VHH 00050 (VHH, not shown: small tags and cut ends)
VHH: B11 VHH with A14P, A41P, A75S, K87R, Q119L
B18: VHH 00044 (VHH, not shown: small tags and cut ends)
VHH: EVQLVESGGGLVQPGGSLRLSCAASGFALDYYAIGWFRQAPGKEREGVSCISSSDGITYYVDSVKGRFTISRDNSKNTVYLQMNSLRPEDTAVYYCATDSGGYIDYDCMGLGYDYWGQGTLVTVSS
B19: VHH 00045 (VHH, not shown: small tags and cut ends)
VHH: B18 VHH with V61A
B20: VHH 00046 (VHH, not shown: small tags and cut ends)
VHH: B18 VHH with D55G
B21: VHH 2F04 (VHH)
VHH: EVQLVESGGGLVQAGGSLRLSCAASGFAFDDHLIGWFRQAPGKEREAVSCISRSAGSTYYADSVKGRFTISSDNAKNTVYLQMNSLKADDTAVYYCAAGPAWGRPASPLPYEYDYWGQGTQVTVSS
notes: also called 002F04; not shown: C-terminal c-myc tag and His6 tag
B22: VHH 16G09 (VHH)
VHH: EVQLVESGGGLVQAGGSLRLVCSASGIDFSINAMAWYRQAPGKQREWVAFMINDSSTDYTDSVKGRFTISRDSTKNILYLQMNNLNVEDTAVYYCNTAYEQHTYWGQGTQVTVSS
notes: also called 016G09; not shown: C-terminal c-myc tag and His6 tag
B23: VHH 14H02 (VHH)
VHH: EVQLVESGGGLVQAGGSLRLSCAASGFTFDEYAIGWFRQAPGKEREGVSYISSSDGSTYYADSVKGRVTSSSDNAKNTVYLQMNSLKPEDTAVYYCAARPTLRVRLDNDRHHLLYEYEYDYWGQGTQVTVSS
notes: also called 014H02; not shown: C-terminal c-myc tag and His6 tag
B24: VHH 12B03 (VHH)
VHH: EVQLVESGGGLVQSGGSLRLSCAASGFALDYYTIGWFRQAPGKEREGVSCISGGDTSTYYADSVKGRFTISRDNAKNTVYLQMNSLKPEDTAVYYCATDSAGVPAGPAAVYGSTCSRLEYDYWGQGAQVTVSS
notes: also called 012B03; not shown: C-terminal c-myc tag and His6 tag
B25: VHH 21G10 (VHH)
VHH: EVQLVESGGGLVQAGGSLRLSCAASGFTLDDYAIGWFRQAPGKEREGVSCISSSDGSTTYADSVKGRFTVSSDNAKNTVYLQMNSLKPEDTAVYYCAAGLRGRYYRGTYSLVCAPYEYDFWGQGTQVTVSS
notes: also called 021G10; not shown: C-terminal c-myc tag and His6 tag
B26: VHH 10C06 (VHH)
VHH: EVQLVESGGGLVQAGGSLRLSCVASGFTFDDYAIGWFRQAPGKEREGVSCISSSDGSTYYADSVKGRFTISGDNAKNTVYLQMNSLKPEDTAVYYCAAGITPCSDYTQTYEYDVWGQGTQVTVSS
notes: also called 010C06; not shown: C-terminal c-myc tag and His6 tag
B27: VHH 3F02 (VHH)
VHH: EVQLVESGGGLVQVGDSLRLACAASGRTFSTYLMVGWFRQAPGKEREFAAGIWSSGDTAYADSVKGRFTISRDNAKNTVYLQMNSLKTEDTAVYYCAGSYDGNYYIPGFYKDWGQGTQVTVSS
notes: also called 003F02; not shown: C-terminal c-myc tag and His6 tag
B28: VHH 3A07 (VHH)
VHH: EVQLVESGGGLVQPGGSLRLSCAASGFTLDYDAIGWFRQAPGKEREGVSCITSSDGITYYADSVKGRFTISRDNAKNTVYLQMNSLKPEDTAVYYCATGNRRIYYSDYALACFPYEYDYWGQGTQVTVSS
notes: also called 003A07; not shown: C-terminal c-myc tag and His6 tag
B29: VHH 6H05 (VHH)
VHH: EVQLVESGGGLVQAGGSLRLSCAASGFTFDDYAIGWFRQAPGKEREGVSCISSSDGSTAYADSVKGRFTISSDNAKNTVYLQMNSLKPEDTAVYYCTAVPATRRTPQMVAANVCWLAEYEYDYWGQGTQVTVSS
notes: also called 006H05; not shown: C-terminal c-myc tag and His6 tag

biological target: T1, recombinant human Ang2-FLD; experiment: ProteOn off-rate assay, periplasmic extract 1:10 over coated human Ang2-FLD
Procedure: In a first cycle, amino acid substitutions are introduced randomly in both framework (FW) and complementary determining regions (CDR) using the error-prone PCR method. […] After a polish step, PCR products are inserted via unique restriction sites into a vector designed to facilitate phage display of the VHH library. […] Periplasmic extract of affinity matured clones is diluted 1:10 and injected across the “analyte channels” A1-A6.

| Binder | fold improvement (off-rate against VHH 00027) [fold] | koff [s⁻¹] |
| --- | --- | --- |
| B1 | 9.4 | 0.00012 |
| B2 | 9.6 | 0.00012 |
| B3 | 8.1 | 0.00016 |
| B4 | 8.9 | 0.00014 |
| B5 | 15.7 | 7.4e-05 |
| B6 | 8.9 | 0.00013 |

biological target: T2, FLAG-tagged mouse Ang2; experiment: competition ELISA: FLAG-mAng2 binding to coated mTie2-Fc
Procedure: (§1) In brief, 2 μg/mL of recombinant mouse Tie2-Fc or cyno Tie2-Fc is coated overnight at 4° C. in a 96-well MaxiSorp plate (Nunc, Wiesbaden, Germany). Coated wells are blocked with a 1% casein solution.

| Binder | IC50 [nM] |
| --- | --- |
| B7 | 29.2 |
| B8 | 4.9 |
| B9 | 1.7 |
| B10 | 2.6 |

Biological target: T3, FLAG-tagged cynomolgus Ang2
Experiment: competition ELISA: FLAG-cAng2 binding to coated cTie2-Fc
Procedure: as §1

| Binder | IC50 [nM] |
| --- | --- |
| B7 | 12.6 |
| B8 | 1.7 |
| B9 | 0.9 |
| B10 | 1.1 |
| B11 | 9.1 |
| B12 | 33 |
| B13 | 15 |
| B14 | 6.4 |
| B15 | 5.8 |
| B16 | 4.5 |
| B17 | 4.8 |
| B18 | 0.13 |
| B19 | 0.16 |
| B20 | 0.16 |

biological target: T2, FLAG-tagged mouse Ang2; experiment: competition ELISA: FLAG-mAng2 binding to coated mTie2-Fc; remark: another data set of the same source
Procedure: as §1

| Binder | IC50 [nM] |
| --- | --- |
| B11 | 12.4 |
| B12 | 28.4 |
| B13 | 37.9 |
| B14 | 28.1 |
| B15 | 29 |
| B16 | 20.3 |
| B17 | 18.6 |
| B18 | 0.091 |
| B19 | 0.11 |
| B20 | 0.083 |

biological target: T4, N-terminally FLAG-tagged mouse Ang2 …; experiment: competition ELISA, FLAG-mAng2 on coated mTie2-Fc
Procedure: as §1

| Binder | IC50 [nM] |
| --- | --- |
| B21 | 57.4 |
| B22 | 19.4 |
| B23 | 143 |
| B24 | 6.7 |
| B25 | 16.8 |
| B26 | 45.2 |
| B27 | 32.7 |
| B28 | 99.3 |
| B29 | 7.7 |
